In paper PMC9354671, “Novel interaction interfaces mediate the interaction between the NEIL1 DNA glycosylase and mitochondrial transcription factor A” (Frontiers in Cell and Developmental Biology, 2022):

Legend:
Conditions in all cases: both partners purified
[1] = molecular target: T1, NEIL1-Δ100, truncated NEIL1 lacking 100 residues from the disordered C-terminal region (human, UniProt Q96FI4 1-290); assay: pull-down; reverse: Flag-tagged TFAM held on anti-FLAG M2 magnetic beads, NEIL1-FL or NEIL1-Δ100 as prey; with and without DNA; eluted with 3X Flag peptide, SDS-PAGE
T1 construct: NEIL1, human, C-terminal 100 residues deleted; Prakash et al., 2017; Sharma et al., 2018; also called NEIL1-∆100; source: E. coli Rosetta 2, purified

NEIL1-∆40 = molecular target: T2, NEIL1-∆40 (human, UniProt Q96FI4 1-350); assay: far-Western, overlay or dot blot; 50 pmol NEIL1 polypeptides separated by SDS-PAGE, on PVDF, denatured in 6M guanidine HCl and refolded; incubated with purified TFAM overnight; detected with anti-TFAM antibody
T2 construct: NEIL1, human, C-terminal 40 residues deleted; source: E. coli Rosetta 2, purified

[2] = molecular target: T3, full-length NEIL1 (NEIL1-FL), C-terminal His-tagged (human, UniProt Q96FI4 1-390); assay: as above
T3 construct: NEIL1 DNA glycosylase, human, full length (390 residues by the printed tail aa 290-390; theoretical mass with tag 44.75 kDa); pET30a plasmid from the Doublié and Wallace laboratories; Called 'untagged' in the Flag pull-down, meaning without Flag; also called NEIL1 DNA glycosylase; source: E. coli Rosetta 2, purified (Talon beads, HiTrap SPFF ion exchange, Superdex 200); not shown: His tag, …

NEIL1-∆78 = molecular target: T4, NEIL1-∆78 (human, UniProt Q96FI4 1-312); assay: as above
T4 construct: NEIL1, human, C-terminal 78 residues deleted; source: E. coli Rosetta 2, purified

NEIL1-∆56 = molecular target: T5, NEIL1-∆56 (human, UniProt Q96FI4 1-334); assay: as above
T5 construct: NEIL1, human, C-terminal 56 residues deleted; source: E. coli Rosetta 2, purified

[3] = molecular target: T1, NEIL1-Δ100, truncated NEIL1 lacking 100 …; assay: as above

Measured: binding result

T1 sequence (Q96FI4 1-290, stated change not applied): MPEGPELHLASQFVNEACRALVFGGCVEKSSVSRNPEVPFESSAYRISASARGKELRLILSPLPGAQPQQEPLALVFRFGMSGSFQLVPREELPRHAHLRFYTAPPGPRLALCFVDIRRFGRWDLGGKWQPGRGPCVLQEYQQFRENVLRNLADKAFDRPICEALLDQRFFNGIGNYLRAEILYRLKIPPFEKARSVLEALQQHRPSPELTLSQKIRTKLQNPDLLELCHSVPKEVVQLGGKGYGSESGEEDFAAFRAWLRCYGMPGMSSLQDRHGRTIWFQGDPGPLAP
T5 sequence (Q96FI4 1-334): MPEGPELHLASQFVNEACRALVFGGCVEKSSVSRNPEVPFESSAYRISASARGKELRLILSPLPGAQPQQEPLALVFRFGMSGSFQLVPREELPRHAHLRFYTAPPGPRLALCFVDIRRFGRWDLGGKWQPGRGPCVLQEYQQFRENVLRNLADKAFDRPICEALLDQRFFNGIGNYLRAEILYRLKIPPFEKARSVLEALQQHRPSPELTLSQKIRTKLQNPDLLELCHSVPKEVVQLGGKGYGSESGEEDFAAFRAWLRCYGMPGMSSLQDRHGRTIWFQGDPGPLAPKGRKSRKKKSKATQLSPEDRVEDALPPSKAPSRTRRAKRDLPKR
T4 sequence (Q96FI4 1-312): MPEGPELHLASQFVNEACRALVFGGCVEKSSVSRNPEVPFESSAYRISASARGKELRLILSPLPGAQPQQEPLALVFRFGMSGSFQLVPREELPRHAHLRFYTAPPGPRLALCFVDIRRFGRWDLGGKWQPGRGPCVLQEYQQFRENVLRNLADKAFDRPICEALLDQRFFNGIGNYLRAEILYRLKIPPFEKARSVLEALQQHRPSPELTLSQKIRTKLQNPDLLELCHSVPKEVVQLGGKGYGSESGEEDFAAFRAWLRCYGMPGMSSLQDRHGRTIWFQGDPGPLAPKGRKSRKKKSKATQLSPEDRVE
T3 sequence (Q96FI4 whole entry, the tested form may be a part): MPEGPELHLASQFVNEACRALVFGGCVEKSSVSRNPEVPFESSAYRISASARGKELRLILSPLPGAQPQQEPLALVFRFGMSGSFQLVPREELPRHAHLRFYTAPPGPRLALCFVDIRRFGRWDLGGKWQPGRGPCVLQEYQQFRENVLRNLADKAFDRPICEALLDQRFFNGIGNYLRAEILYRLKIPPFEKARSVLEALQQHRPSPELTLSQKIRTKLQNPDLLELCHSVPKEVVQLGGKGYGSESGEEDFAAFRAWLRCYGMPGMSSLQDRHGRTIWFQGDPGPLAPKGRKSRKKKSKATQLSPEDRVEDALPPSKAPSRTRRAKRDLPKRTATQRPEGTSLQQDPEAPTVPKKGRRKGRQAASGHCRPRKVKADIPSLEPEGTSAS
T2 sequence (Q96FI4 1-350): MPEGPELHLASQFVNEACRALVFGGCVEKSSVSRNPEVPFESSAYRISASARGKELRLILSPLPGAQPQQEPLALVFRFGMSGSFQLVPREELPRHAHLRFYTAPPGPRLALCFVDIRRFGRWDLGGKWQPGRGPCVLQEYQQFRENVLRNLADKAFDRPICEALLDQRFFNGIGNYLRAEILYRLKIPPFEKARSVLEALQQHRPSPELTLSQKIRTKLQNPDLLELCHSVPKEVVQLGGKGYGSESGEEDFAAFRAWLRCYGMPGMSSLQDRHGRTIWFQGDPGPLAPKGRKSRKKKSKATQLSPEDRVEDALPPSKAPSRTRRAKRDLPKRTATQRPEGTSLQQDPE

B1: Flag-tagged TFAM (natural protein, UniProt Q00059 43-246, looked up)
chain: SSVLASCPKKPVSSYLRFSKEQLPIFKAQNPDAKTTELIRRIAQRWRELPDSKKKIYQDAYRAEWQVYKEEISRFKEQLTPSQIMSLEKEIMDKHLKRKAMTKKKELTLLGKPKRPRSAYNVYVAERFQEAKGDSPQEKLKTVKENWKNLSDSEKELYIQHAKEDETRYHNEMKSWEEQMIEVGRKDLLRRTIKKQRKYGAEEC
notes: also called C-terminal Flag-tagged purified TFAM; source: E. coli, purified; not shown: Flag, C-terminal, kept
binds: [1]

B2: mitochondrial transcription factor A (TFAM) lacking the mitochondrial targeting sequence (natural protein, UniProt Q00059 43-246, looked up)
chain: B1 chain
notes: theoretical MW 25.6 kDa; Printed domain limits: HMG-box A 43-122, linker 122-152, HMG-box B 152-222, C-terminal tail 222-246; Subcloned into pET30a from a full-length ORF plasmid; also called full-length TFAM monomer (lacking the N-terminal MTS); source: E. coli, purified (as Ngo et al., 2011)
binds: NEIL1-∆40 | [2] | NEIL1-∆78 | NEIL1-∆56 | [3]
